The values that follow come from patent US8663616B2, “Enzymatic peracid generation for use in oral care products” (E I du Pont de Nemours and Company, priority 2010, dated 2014).

A short description of experiment [1]: Peracetic acid generated in solution by CE-7 perhydrolase fusions (Example 8). The experiment is classed as biochemical. The settings on record: 0.5 μM enzyme, 100 mM triacetin, 100 mM H2O2, pH 7.2, 10 min, 37° C.; no enzyme 378.9. How it is done: (§1) The detection of peracetic acid followed the method described in Pinkernell et. al. (Analyst, 1997, 122, 567) using colorimetric detection of 2,2′-azino-bis(3-ethylbenzothiazoline(-6-sulfonate (ABTS) oxidation by peracetic acid. Following the formation of peracetic acid with the addition of triacetin and hydrogen peroxide, 90 μL of solution was added to 10 μL of 0.1 M H3PO4 in a well plate. 50 μL of 1 M acetic acid, 50 μL of 0.5 g/L ABTS and 50 μL of 0.002 g/L of KI was added. The solution was allowed to develop for 5 min. The absorbance of the solution was measured at 405 nm using a microplate reader. The peracetic acid concentration was calculated based on a standard curve developed simultaneously using peracetic acid reagent solution.
Perhydrolase enzymes listed in Table 6 were assessed for solution activities. The method to measure the perhydrolase in solution activity was described in Example 7 by making a 500 μL solution containing 0.5 μM of enzyme, 100 mM triacetin, 100 mM H2O2 in 100 mM phosphate buffer, pH 7.2. The solution was mixed and incubated for 10 min at 37° C. A 10 μL aliquot was removed and diluted for detection as described in Example 7. Peracetic acid concentration was determined using a standard curve generated with a stock solution of peracetic acid (Aldrich). The experiment was also performed with no enzyme present as a control.

Experiment [2] in a line: Peracetic acid generation from hydroxyapatite bound CE-7 perhydrolase fusions (Example 8). The conditions noted are these: for Peracetic acid (ppm): hydroxyapatite particles exposed to 10 μM enzyme, washed, 100 mM triacetin, 100 mM H2O2, 30 min, 37° C., no enzyme 30-118.8. The experiment is classed as biochemical. How it is done:
as §1
To assess binding of these constructs to hydroxyapatite, 33 mg of hydroxyapatite particles (Macro-prep Ceramic Hydroxyapatite TYPE I, 80 μm size BioRad, Hercules, Calif.), were washed with 10 mM phosphate buffer at pH 7.2. After removing the supernatant, enzyme stock solution was added to the hydroxyapatite dispersion to a final concentration of 10 μM and incubated for 30 min in a microcentrifuge tube with gentle agitation. Each sample was centrifuged for 1 min at 10000 rpm. The supernatant was removed and additional buffer was added. The particles were resuspended and transferred to a new tube. The process was repeated two additional times. The hydroxyapatite bound enzyme activity was measured by adding a 500 μl solution containing 100 mM triacetin, 100 mM H2O2 in 100 mM phosphate buffer, pH 7.2. The solution was incubated for 30 min, at 37° C. An aliquot was removed and mixed with H3PO4 and properly diluted for detection via ABTS oxidation as described in Example 7. The experiments were performed at different day with no enzyme as control for each experiment.

B1: EZ-29: Bpu-link1-DenP308-H6, SEQ ID NO: 453 (protein)
chain: MQLFDLSLEELKKYKPKKTARPDFSDFWKKSLEELRQVEAEPTLESYDYPVKGVKVYRLTYQSFGHSKIEGFYAVPDQTGPHPALVRFHGYNASYDGGIHDIVNWALHGYATFGMLVRGQGGSEDTSVTPGGHALGWMTKGILSKDTYYYRGVYLDAVRALEVIQSFPEVDEHRIGVIGGSQGGALAIAAAALSDIPKVVVADYPYLSNFERAVDVALEQPYLEINSYFRRNSDPKVEEKAFETLSYFDLINLAGWVKQPTLMAIGLIDKITPPSTVFAAYNHLETDKDLKVYRYFGHEFIPAFQTEKLSFLQKHLLLSTGPGSGGAGSPGSAGGPGSDPTKPPRTPTANTSRPHHNFGSGGGGSPHHHHHH
On to B1, for which the “PAA (ppm)” value in experiment [1] was found to be 2273.5 ppm. In addition, the “Peracetic acid (ppm)” value in experiment [2] was 1299.8 ppm. In experiment [2] (targeted vs untargeted B. pumilus fusion), the “activity after binding to hydroxyapatite (in words)” value was “higher binding activity compared to the untargeted EZ-27”.

B2: EZ-32: Mlo-link1-DenP308-H6, SEQ ID NO: 456 (protein)
chain: MPFPDLIQPELGAYVSSVGMPDDFAQFWTSTIAEARQAGGEVSIVQAQTTLKAVQSFDVTFPGYGGHPIKGWLILPTHHKGRLPLVVQYIGYGGGRGLAHEQLHWAASGFAYFRMDTRGQGSDWSVGETADPVGSTSSIPGFMTRGVLDKNDYYYRRLFTDAVRAIDALLGLDFVDPERIAVCGDSQGGGISLAVGGIDPRVKAVMPDVPFLCDFPRAVQTAVRDPYLEIVRFLAQHREKKAAVFETLNYFDCVNFARRSKAPALFSVALMDEVCPPSTVYGAFNAYAGEKTITEYEFNNHEGGQGYQERQQMTWLSRLFGVGGPGSGGAGSPGSAGGPGSDPTKPPRTPTANTSRPHHNFGSGGGGSPHHHHHH
For the molecule B2, the “PAA (ppm)” value in experiment [1] turned out to be 497.7 ppm. Also, in experiment [2], the “Peracetic acid (ppm)” value came to 419.3 ppm.

B3: EZ-31: Mlo-link1-HC263-H6, SEQ ID NO: 455 (protein)
chain: MPFPDLIQPELGAYVSSVGMPDDFAQFWTSTIAEARQAGGEVSIVQAQTTLKAVQSFDVTFPGYGGHPIKGWLILPTHHKGRLPLVVQYIGYGGGRGLAHEQLHWAASGFAYFRMDTRGQGSDWSVGETADPVGSTSSIPGFMTRGVLDKNDYYYRRLFTDAVRAIDALLGLDFVDPERIAVCGDSQGGGISLAVGGIDPRVKAVMPDVPFLCDFPRAVQTAVRDPYLEIVRFLAQHREKKAAVFETLNYFDCVNFARRSKAPALFSVALMDEVCPPSTVYGAFNAYAGEKTITEYEFNNHEGGQGYQERQQMTWLSRLFGVGGPGSGGAGSPGSAGGPGSPSAQSQLPDKHSGLHERAPQRYGPEPEPEPEPIPEPPKEAPVVIEKPKPKPKPKPKPPAHDHKNQKETHQRHAAGSGGGGSPHHHHHH
For the molecule B3, in experiment [1], the “PAA (ppm)” value amounted to 434.9 ppm. The “Peracetic acid (ppm)” value in experiment [2] is 241.4 ppm.

B4: EZ-30: Mlo-link1-H6, SEQ ID NO: 454 (protein)
chain: MPFPDLIQPELGAYVSSVGMPDDFAQFWTSTIAEARQAGGEVSIVQAQTTLKAVQSFDVTFPGYGGHPIKGWLILPTHHKGRLPLVVQYIGYGGGRGLAHEQLHWAASGFAYFRMDTRGQGSDWSVGETADPVGSTSSIPGFMTRGVLDKNDYYYRRLFTDAVRAIDALLGLDFVDPERIAVCGDSQGGGISLAVGGIDPRVKAVMPDVPFLCDFPRAVQTAVRDPYLEIVRFLAQHREKKAAVFETLNYFDCVNFARRSKAPALFSVALMDEVCPPSTVYGAFNAYAGEKTITEYEFNNHEGGQGYQERQQMTWLSRLFGVGGPGSGGAGSPGSAGGPGSHHHHHH
Regarding B4, in experiment [1], the “PAA (ppm)” value turned out to be 468.8 ppm. Moreover, the “Peracetic acid (ppm)” value in experiment [2] turned out to be 658.5 ppm.
